Laboratory results as given in patent US20090228996A1, “Means and Methods for influencing Interactions Between Dc-Sign and Dc-Sign Ligands” (priority 2006, published 2009).

Tests used:
[1] = tested on: DC-SIGN mediated transfer of HIV-1 by Raji-DC-SIGN cells to CD4+ T-lymphocytes; test: DC-SIGN mediated HIV-1 transfer assay (Raji-DC-SIGN transfer culture assay); type: cell-based; conditions: BSSL isolated from S4, at 30 μg/ml and 1.2 μg/ml; P<0.05
Method: DC-SIGN mediated HIV-1 transfer assay. The Raji and Raji-DC-SIGN cells were plated at a concentration of 2×10^4 cells/well in a 96 well format. Dilutions of human milk or human milk compounds were made in PBS containing 10% FCS and spiked with 3.7log TCID50/ml of the appropriate virus before addition to the Raji-DC-SIGN cells. As controls PBS containing 10% FCS was spiked with the same TCID50/ml of the corresponding virus before addition to Raji or Raji-DC-SIGN cells. After incubation the culture was washed with PBS before addition of CD4^+ enriched T-lymphocytes at a concentration of 1×10^5 cells/well with p24 determined on day 7. DC-SIGN specific antibody binding after exposure to human milk. […] The cells were washed and resuspended in 100 μl TSM containing 0.5% bovine serum albumin, (BSA Fraction V, Fatty Acid-Free) (Calbiochem) and the adhesion was measured by flow cytometry (BD Biosciences).
DC-SIGN mediated HIV-1 transfer assay. […] After a two hour incubation the culture was washed with PBS before addition of CD4^+ enriched T-lymphocytes at a concentration of 1×10^5 cells/well with p24 values determined on day 7.

DC-SIGN-Fc = target: T1, DC-SIGN-Fc (Homo sapiens, UniProt Q9NNX6); test: DC-SIGN-Fc binding ELISA
T1 construct: the extracellular portion of DC-SIGN (amino acids 64 to 404)
T1 sequence (Q9NNX6 64-404): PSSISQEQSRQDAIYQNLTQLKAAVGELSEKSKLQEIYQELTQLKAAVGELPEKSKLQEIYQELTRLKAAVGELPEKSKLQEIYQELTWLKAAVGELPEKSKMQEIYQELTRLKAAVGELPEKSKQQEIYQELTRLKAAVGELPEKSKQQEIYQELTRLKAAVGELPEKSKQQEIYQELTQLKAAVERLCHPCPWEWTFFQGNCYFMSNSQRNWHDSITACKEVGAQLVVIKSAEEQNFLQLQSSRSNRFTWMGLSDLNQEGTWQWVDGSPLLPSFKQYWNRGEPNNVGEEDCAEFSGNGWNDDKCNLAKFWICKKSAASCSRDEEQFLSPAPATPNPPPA
Method: DC-SIGN-Fc binding ELISA. The DC-SIGN-Fc chimera contained the extracellular portion of DC-SIGN (amino acids 64 to 404) fused at the C-terminus to a human immunoglobulin (Ig) G1 Fc fragment and has been previously described (Geijtenbeek et al, 2002). Human milk or human milk compounds were diluted in 0.2M NaHCO3, coated on ELISA plates (maxisorb plate; Nunc) and incubated overnight at 4° C. or 2 hours at 37° C. This was followed by blocking with TSM containing 1% BSA for 30 minutes at 37° C. before addition of soluble DC-SIGN-Fc (5 μg/ml) for 2 hours at RT, the binding was determined by incubation of a peroxidase labeled anti-IgG1 antibody for 30 minutes at RT. DC-SIGN-Fc binding specificity was determined by pre-incubation of the DC-SIGN-FC with either 50 μg/ml DC-SIGN specific mouse antibody AZN-D1 (Geijtenbeek et al, 2000 a) or 10 mM EGTA. Single-cycle-replication transmission assay. The assay was performed as previously described (Groot et al, 2005). In short mDCs and iDCs were incubated in a 96-well-plate (35−50×10^3 DC/well) with human milk for 30 minutes at 37° C. before addition of the virus (5 ng p24/well), which was incubated for 2 hours at 37° C. The DCs were washed twice with PBS before addition of 50×10^3 LuSIV cells. After 24 hours, LuSIV cells were harvested and resuspended in 50 μl lysis buffer (25 mM Tris-Cl 7.8, 2 mM DTT, 2 mM CDTA, 10% glycerol, 1% Triton X100). The cells were then incubated for 45 minutes at room temperature while shaking, followed by 10 minutes centrifugation at 3200×g. The supernatant was transferred to a white-solid 96 well plate (Corning Costar), and 150 μl of lucibuffer (100 μg/ml BSA, 6.6 mM ATP, 15 mM MgSO4, 25 mM glycylglycine) was added. 100 μl of DE(−)Luciferin (Roche Diagnostics GmbH) was injected per well (0.28 mg/ml lucibuffer excluding ATP). 50×10^3 LuSIV cells grown without DC or HIV-1 were used to obtain the background luciferase value.
DC-SIGN-Fc binding ELISA. The DC-SIGN-Fc chimera contained the extracellular portion of DC-SIGN (amino acids 64 to 404) fused at the C-terminus to a human immunoglobulin (Ig) G1 Fc fragment which has been previously described (Geijtenbeek et al, 2002). Human milk or BSSL were diluted in 0.2 M NaHCO3, coated on ELISA plates (maxisorb plate; Nunc) and incubated overnight at 4° C. or 2 hours at 37° C. This was followed by blocking with TSM containing 1% BSA for 30 minutes at 37° C. before addition of soluble DC-SIGN-Fc (5 μg/ml) for 2 hours at RT, the binding was determined by incubation of a peroxidase labeled anti-IgG1 antibody for 30 minutes at RT. DC-SIGN-Fc binding specificity was determined by pre-incubation of the DC-SIGN-Fc with either 50 μg/ml DC-SIGN specific mouse antibody AZN-D1 (Geijtenbeek et al, 2000 a) or 10 mM EGTA.

B1: BSSL: Bile salt stimulated lipase glycoprotein isolated from human milk (S4) (protein, UniProt P19835 21-753, looked up)
Bile salt-activated lipase: AKLGAVYTEGGFVEGVNKKLGLLGDSVDIFKGIPFAAPTKALENPQPHPGWQGTLKAKNFKKRCLQATITQDSTYGDEDCLYLNIWVPQGRKQVSRDLPVMIWIYGGAFLMGSGHGANFLNNYLYDGEEIATRGNVIVVTFNYRVGPLGFLSTGDANLPGNYGLRDQHMAIAWVKRNIAAFGGDPNNITLFGESAGGASVSLQTLSPYNKGLIRRAISQSGVALSPWVIQKNPLFWAKKVAEKVGCPVGDAARMAQCLKVTDPRALTLAYKVPLAGLEYPMLHYVGFVPVIDGDFIPADPINLYANAADIDYIAGTNNMDGHIFASIDMPAINKGNKKVTEEDFYKLVSEFTITKGLRGAKTTFDVYTESWAQDPSQENKKKTVVDFETDVLFLVPTEIALAQHRANAKSAKTYAYLFSHPSRMPVYPKWVGADHADDIQYVFGKPFATPTGYRPQDRTVSKAMIAYWTNFAKTGDPNMGDSAVPTHWEPYTTENSGYLEITKKMGSSSMKRSLRTNFLRYWTLTYLALPTVTDQEATPVPPTGDSEATPVPPTGDSETAPVPPTGDSGAPPVPPTGDSGAPPVPPTGDSGAPPVPPTGDSGAPPVPPTGDSGAPPVPPTGDSGAPPVPPTGDSGAPPVPPTGDSGAPPVPPTGDAGPPPVPPTGDSGAPPVPPTGDSGAPPVTPTGDSETAPVPPTGDSGAPPVPPTGDSEAAPVPPTDDSKEAQMPAVIRF
inhibition of DC-SIGN mediated HIV-1 transfer [1]: significant inhibition | DC-SIGN-Fc binding (DC-SIGN-Fc; BSSL at 30 μg/ml, 3 μg/ml and 0.3 μg/ml, P<0.01): binding | effect of trypsinization of purified BSSL (DC-SIGN-Fc; binding not fully alleviated, data not shown): trypsin sensitive | effect of heat treatment of purified BSSL (DC-SIGN-Fc; data not shown): heat resistant
